Data on 5 molecules can be found in paper PMC3713617.

The term stoichiometry N denotes the number of molecules, sites or subunits per partner or assembly. Usually Kd stands for the free concentration of one partner at which half of the binding sites on the other are occupied at equilibrium, for simple one-to-one binding. High values mean weaker binding, low ones tighter binding.

Data set [1] addresses Helicobacter pylori ferric uptake regulator, wildtype (HpFurWT) (H. pylori) (UniProt O25671). Put plainly: cross-linking.
Data set [2] concerns the target T1, HpFurE5A (Helicobacter pylori, UniProt O25671 1-150, E5A).
T1 sequence: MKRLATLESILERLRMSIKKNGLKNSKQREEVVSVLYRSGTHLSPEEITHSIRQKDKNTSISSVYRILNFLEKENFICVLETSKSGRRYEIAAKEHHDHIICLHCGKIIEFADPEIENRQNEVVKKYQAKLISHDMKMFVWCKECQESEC
Briefly: fluorescence anisotropy. (In general: Polarisation of emitted light reports the rotation of a fluorescent probe.)

Data set [3] concerns the target T2, HpFurA92T (Helicobacter pylori, UniProt O25671 1-150, A92T).
T2 sequence: T1 sequence with A5E, A92T
Put plainly: fluorescence anisotropy.

The target of data set [4] is T3, HpFurWT (Helicobacter pylori, UniProt O25671 1-150).
T3 sequence: T1 sequence with A5E
Put plainly: fluorescence anisotropy.

The target of data set [5] is T4, HpFurH134Y (Helicobacter pylori, UniProt O25671 1-150, H134Y).
T4 sequence: T1 sequence with A5E, H134Y
Put plainly: fluorescence anisotropy.

Data set [6] addresses T1, HpFurE5A. Briefly: competition.
Data set [7] concerns the target T2, HpFurA92T. Put plainly: competition.
Data set [8] has as its target T2, HpFurA92T. Briefly: fluorescence anisotropy. The source holds these as a separate data set.
In data set [9] the target is T3, HpFurWT. Briefly: fluorescence anisotropy. The source holds these as a separate data set.
Data set [10] addresses T4, HpFurH134Y. Briefly: fluorescence anisotropy. The source holds these as a separate data set.

Where a chain is given by its changes, count along the chain named. Like-named read-outs stand apart in the source and are kept apart here.

In data set [1], “Helicobacter pylori ferric uptake regulator, wildtype (HpFurWT) (from UniProt O25671 1-150) (natural protein)” showed a stoichiometry N of 2.

B1: amiE Fur box duplex (dsDNA)
DNA 1: TGCCCCAATAATCATAATGATTAA
DNA 2: TTAATCATTATGATTATTGGGGCA
B1: the Kd in the data set with HpFurE5A [2] came to 2 ± 1 nM; with HpFurA92T [3], 15 ± 2 nM; with HpFurWT [4], 16 ± 2 nM; in the data set with HpFurH134Y [5] it was 6 ± 1 nM.

B2: amiE Fur box scrambled (GT repeats) (dsDNA)
DNA 1: TGCCCCGTGTGTGTGTGTGTATTAA
DNA 2: TTAATACACACACACACACGGGGCA
Regarding B2, in the data set with HpFurE5A [6], the binding result is reported as “no binding”.

B3: pfr scrambled (GT repeats) (dsDNA)
DNA 1: TTCATTAGTGTGTATGCTAT
DNA 2: ATAGCATACACACTAATGAA
As for B3, the binding result with HpFurA92T [7] is given as “no binding”.

B4: pfr apo-Fur binding site duplex (dsDNA)
DNA 1: TTCATTATCATTTATGCTAT
DNA 2: ATAGCATAAATGATAATGAA
With B4, the Kd amounted to 13 ± 1 nM in the data set with HpFurA92T [8], 43 ± 2 nM in the data set with HpFurWT [9] and 8 ± 1 nM in the data set with HpFurH134Y [10].
